Numbering of substitutions follows the chain as printed. Blank lines part the entries; values can stand above or below the binder they belong to.
Target: T1, full length human Tau (not phosphorylated) (human, UniProt P10636 1-758)
T1 construct: Human Tau isoform F, 441 residues; also called full length tau; Tau protein
Assay: Western blot on recombinant Tau, all antibodies 1 ug/ml

T1 sequence (P10636 other isoform, or with tags, fused parts or gaps limits assumed): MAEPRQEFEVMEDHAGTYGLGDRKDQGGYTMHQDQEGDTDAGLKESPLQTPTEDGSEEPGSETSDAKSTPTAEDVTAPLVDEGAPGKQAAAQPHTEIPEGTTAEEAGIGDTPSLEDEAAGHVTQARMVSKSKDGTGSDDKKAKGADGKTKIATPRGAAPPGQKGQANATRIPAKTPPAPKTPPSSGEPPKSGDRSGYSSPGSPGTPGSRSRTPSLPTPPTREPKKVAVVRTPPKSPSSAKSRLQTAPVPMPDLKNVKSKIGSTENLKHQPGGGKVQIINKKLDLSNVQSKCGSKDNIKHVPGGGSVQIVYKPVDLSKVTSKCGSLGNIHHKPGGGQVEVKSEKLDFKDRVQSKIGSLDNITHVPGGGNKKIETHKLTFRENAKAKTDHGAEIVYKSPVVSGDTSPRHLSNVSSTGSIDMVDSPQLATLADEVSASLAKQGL

binding result: no binding (tested: 1 ug/ml)
B1: VH32/VL21 (antibody, V domains shown)
VH: EVQVLESGGGLVQPGGSLRLSCAVSGFSLSSNAINWVRQAPGKGLEWVGYIAVSGNTYYASWAKGRFTISRDNSKNTVYLQMNSLRAEDTAVYYCGKSNIWGQGTLVTVSS
VL: AQVMTQSPSSLSASVGDRVTITCRSSQSVRTNKLAWFQQKPGQPPKRLIYSASTLDFGVPSRFSGSGSGTEFTLTISSLQPEDFATYYCLGYFDSSADIVAFGGGTKVEIK

binding result: no binding (tested: 1 ug/ml)
B2: VH32/VL22 (antibody, V domains shown)
VH: B1 VH
VL: B1 VL with K33R, F57Y
